Results: publication PMC5854669, “Zinc knuckle of TAF1 is a DNA binding module critical for TFIID promoter occupancy”
Changes are numbered by the printed parent chain.

B1: IMD (Inr, MTE, DPE of super core promoter) (dsDNA)
DNA 1: GTCCTCAGTCGCGATCGAACACTCGAGCCGAGCAGACGTGCCTA
DNA 2: TAGGCACGTCTGCTCGGCTCGAGTGTTCGATCGCGACTGAGGAC
B2: CD1P (cyclin D1 core promoter) (dsDNA)
DNA 1: AGGGGAGTTTTGTTGAAGTTGCAAAGTCCTGGAGCCTCCAGAGGGCTGTCG
DNA 2: CGACAGCCCTCTGGAGGCTCCAGGACTTTGCAACTTCAACAAAACTCCCCT
B3: Random DNA (dsDNA)
DNA 1: GAATGTCGCGAAGGCAGCGTTCGCGAAGACAGCAAAGAAG
DNA 2: CTTCTTTGCTGTCTTCGCGAACGCTGCCTTCGCGACATTC

How the values were obtained:
[1] = target: T1, TAF1 ZnD charge mutant (Homo sapiens, UniProt P21675 1256-1303, R1295A;K1298A); assay: BLI; BLI: 10 mM HEPES pH 7.9, 5 mM MgCl2, 100 mM NaCl, 10% glycerol, 0.1% ovalbumin, 0.2 mM dI:dC, 30 °C; EMSA: 10 mM HEPES pH 7.9, 5 mM MgCl2, 100 mM NaCl, 10% glycerol, 20 mM tetrasodium pyrophosphate (so in the source), 0.2 mM dI:dC, 25 °C; conditions: protein: recombinant; tags: His-GB1; label: 5'-biotin (BLI); 5'-32P (EMSA); blunt
T1 chain: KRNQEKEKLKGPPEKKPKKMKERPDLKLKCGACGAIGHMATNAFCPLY

[2] = target: T2, TAF1 ZnC cysteine mutant (Homo sapiens, UniProt P21675 1234-1303, C1285A;C1288A); assay: as above; conditions: protein: recombinant; tags: His-GB1; label: 5'-biotin (BLI); 5'-32P (EMSA); blunt
T2 sequence: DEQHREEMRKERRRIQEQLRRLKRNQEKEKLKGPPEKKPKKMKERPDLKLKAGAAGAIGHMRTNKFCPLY

[3] = target: T3, TAF1 ZnD cysteine mutant (Homo sapiens, UniProt P21675 1256-1303, C1285A;C1288A); assay: as above; conditions: protein: recombinant; tags: His-GB1; label: 5'-biotin (BLI); 5'-32P (EMSA); blunt
T3 chain: T1 chain with C30A, C33A, A40R, A43K

[4] = target: T4, TAF1 ZnC (Homo sapiens, UniProt P21675 1234-1303); assay: BLI; 0.2 mM dI:dC, 5 mM Mg2+; BLI: 10 mM HEPES pH 7.9, 5 mM MgCl2, 100 mM NaCl, 10% glycerol, 0.1% ovalbumin, 0.2 mM dI:dC, 30 °C; EMSA: 10 mM HEPES pH 7.9, 5 mM MgCl2, 100 mM NaCl, 10% glycerol, 20 mM tetrasodium pyrophosphate (so in the source), 0.2 mM dI:dC, 25 °C; conditions: protein: recombinant; tags: His-GB1; label: 5'-biotin (BLI); 5'-32P (EMSA); blunt
T4 sequence: T2 sequence with A52C, A55C

[5] = target: T5, TAF1 ZnD (Homo sapiens, UniProt P21675 1256-1303); assay: as above; conditions: protein: recombinant; tags: His-GB1; label: 5'-biotin (BLI); 5'-32P (EMSA); blunt
T5 chain: T1 chain with A40R, A43K

[6] = target: T6, TAF1 ZnA (Homo sapiens, UniProt P21675 1234-1371); assay: as above; conditions: protein: recombinant; EMSA/proteolysis: tag removed by TEV; label: 5'-biotin (BLI); 5'-32P (EMSA); blunt
T6 sequence: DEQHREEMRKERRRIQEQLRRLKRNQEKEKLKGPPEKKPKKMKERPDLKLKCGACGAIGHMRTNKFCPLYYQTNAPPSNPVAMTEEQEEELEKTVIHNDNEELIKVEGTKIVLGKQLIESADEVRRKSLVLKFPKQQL

| Binder | binding result [1] | binding result [2] | binding result [3] | Kd [4] [µM] | Kd [5] [µM] | Kd [6] [µM] |
| --- | --- | --- | --- | --- | --- | --- |
| B1 | no binding | no binding | no binding | 0.343 ± 0.042 | 0.503 ± 0.067 | 0.288 ± 0.046 |
| B2 |  |  |  |  |  | 0.411 ± 0.101 |
| B3 |  |  |  |  |  | 1.01 ± 0.228 |
